From the nanobody polyreactivity screen of Harvey et al. (2022)

Assay: yeast display, Sf9 membrane polyspecificity reagent, FACS + sequencing; frameworks hold sequencing errors
Method in brief: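 Nanobodies from a synthetic yeast display library (Saccharomyces cerevisiae BJ5465), induced 36–48 hours with galactose, were stained 1 hour at 4 °C with 10% biotinylated, detergent-solubilized Sf9 membrane reagent, enriched on streptavidin microbeads, then FACS-sorted. Anti-HA (expression) and streptavidin (reagent binding) fluorescence set low and high (top ~1%) gates. Polyreactivity labels come from the gate of origin. Genes were colony-PCR amplified, MiSeq 2 × 250 sequenced and filtered by CDR length.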

| Sequence | polyreactivity (PSR sort gate) |
| --- | --- |
| QVQLVESCGGLVQAGGSLRLSCAASGSIFGWYAMGWYRQAPGKESELVAAISTSTGSTYYADSVKGRFTISRDNAKNTVYLQMNSLKPEDTAVYYCAVVVAGVFLWGVERYDYWGQGTQVTVSS | low polyreactivity |
| QVQLVESGGGLVQAGGSLRLSFAASGSIFYRNAMGWYRQAPGKERELVASISASGGRTYYADSVKGRFTISRDNGKNTVYLQMNSVKPEDTAFYYCNKVSPVAYWYSWGINFDYWGQGTQVTVSS | high polyreactivity |
| QVHLVESGGGLVQAGGSLRLSCADCGFTLYGNAMGWYRQAPGKVRELVAAITKSGGRTYYADSVKGRFTISRDNAKNTVYLQMNSLKPEDTAVYYCAVRAKSRYDYWGQGTQVTVSS | high polyreactivity |
| QVHLVESGGGLVQAGGSLRLSCAASGFTFIRNGMGSYRQAPGKERELVAAINSRGGNTYYADSVKGRFTISRDNAKNTVYLQMNSLKPEDTAVYYCNRVVQRWSTQYGYWGQGTQVTVSS | high polyreactivity |
| QVQLVESGGGLVQAGGSLRLSCAASGRTFSNYAMGWYRQAPGKEREFVAGIRYNGGSTYYADSVKGRFTISRDNAKNTVYLQMNSLKPEDTAVYYCAAERWFYRSKFDYWGQGTQVTVSS | high polyreactivity |
| QVQLRESGGGLVQAGGSLRLSCAASGRIFGNYSMGRYRQAPGKEREMVAAISGGGSTYYADSVKGRFTISRDNAKNTVYLQMTSLKPEDTAVYYCADRFLWSVFCRKGGYWGQGTQVTVSS | low polyreactivity |
| QVQLVESGGGLVQAGGSLRLSCAASGFTFRANAMGWYRQAPGKERELVAAISQSGGRTNYADSVKGRFTISRDNAKNTVYLQMNSLKPEDTAVYYCAAPYSAKELYYRMDYWGQGTQVTVSS | high polyreactivity |
| QVQLVESGGGLVQAGGSLRLSCAASGRICDFYSMGWYRQAPGKERELVAAIDSDGSTNYADSVKGRFTISRDNAKNNVYLQMNSLKPEDTAVSYCNADIWAYTYRRYDYWGQGTQVTVSS | low polyreactivity |
| QVQLVESGGGLVQSGGSLRLSCAASGSTFKYYAMGWYRQAPGKERELVAAISRSGGSTYYADSVKGRFTISRDNAKNTVYIQMNSLKPEDTAVYYCNAYYRYSFCELDKYGYWGQGTQVTVSS | high polyreactivity |
| QVQLVESGGGLVQAGGSLRLSCAASGYTFGHYVMGWYRQAPGKERELVAAISRSGGSTYYADSVKGRFTISRDNAKNTVYLQMNSLKPEDTAVYYCARGRIGGGAPGDKSSLNYYYWGQGTQVTVSS | high polyreactivity |
| QVQLVESVGGLVQAGGSLRLSCAASGRIFGWYAMGWYRQAPGKERELVAAITSGGTTYYADSVKGRFTISRDNAKNTVYLQMNSLKPEDTAVYYCAKYHWRLSFSRYPYDYWGQGTQVTVSS | high polyreactivity |
| QVQLEESGGGLVQAGGRLRLSCAASGRIFAVNAMGWYRQAPGKERELVASITSRGGSTYYADSVYGRFTISRDNAKNTVYLQMPSLKPEDTAVDYCASPYYSLTTNDYDYSGQGTQVTVSS | high polyreactivity |
| QVQLVESGGGLVQAGGSLRLSCAASGYTFVIYAMGWYRQAPGKERELVAAITTIGGRTYYADSVKGRFTISRDNAKNTVYLQMNSLKPEDTAVYYCAADIRSNRLYDGGYWGQGTQVTVSS | low polyreactivity |
| QVQLVESVGGLVQAGGSLRLSCAASGITFTVYAMGWYRQAPGKERELVAAISSSGSTTYADSVKGRFTISRDNAKNTVYLQMNSLKPEDTAVYYCAAYSDYYLDQWYGYWGQGTQVTVSS | low polyreactivity |
| QVQLVESGGGLVQAGGSLRLSCAATGRTFSTNAMGGSRQAPGKERELVAAITSSGGRTYYADSVKGRFTISRDNAKNTVYLQMNSLKPEDTAVYYCAAYPWYYRGYWFGYWGQGTQVTVSS | high polyreactivity |
| QVQLVESGGGLVQAGGSLRLSCAASGSIITINAMGWYRQAPGKERELVAAISKRGGSTYYADSVKGRFTISSDNGKHTVYLQLNSLKPEDTAFYYCNAREYIHWRGALGLFGSWGQGTQVNVSS | high polyreactivity |
| QVQLVESGGGLVQAGGSLRLSCAASGSIFSGYAMGWYRQAPGKEREFVAAISSSGGRTYYADSVKGRFTISRDNAKNTVYLQMNSLKPEDTAVYYCNAVSSYGYDYWGQGTQVTVSS | high polyreactivity |
| QVQLVESGGGLVQAGVSLRLSCAASGRTFVTYAMGWSREAPGKEKEFVAAISRTGGSTDYADSVKGRFTISRDNAKNTVYLQMNSLKPEETAVYYCATTVIVSPSGYLKSYYWGQGTQVTVSS | high polyreactivity |
| QVQLVESGGGLVQAGGSLRLSCAASGRILSYYAMGWYRQAPGKERELVARITGRGGSTYYADSVKGRFTISRDNAKNTVYLQMNSLKPEDTAVYYCAAVPWVVYSGYDYWGQGTQVTVSS | low polyreactivity |
| QDQLVESGGGLVQAGGSLRLICAASARTFSHYPLGWYRQAAGKERELVATITRNGRITYYADSVKGRFTISRDNAKYTVYFQMNSLKPEDTAVYYFNKRWGGPIQFDYWGPGTQVTVSS | low polyreactivity |
| QVQLVESGGGLVQAGGSLRLSCAASGRIFYHYAMGWYRQAPGKERELVATINSSGTSTYYADSVKGRFTISRDNAKNTVYLQMNSLKPEDTALYYCAASTYNKMYYWGQGTHVTVSS | high polyreactivity |
| QVKLVESGGGLVQAGGSLRLSCAASGFTFNANAMRWYRQAPGKERELVAAISLSGGRTYYADSVKGRFTISRDNAKNTVYLQMISLKPEDTAVYYCAASPDGSFRRFSRVVSGDYWGKGTQVTVSS | high polyreactivity |

| Sequence | polyreactivity (PSR sort gate) |
| --- | --- |
| QVQLVESGGGLVQAGGSLRLSCAASGRTFVNYTMGWYRQAPGKEWELVAAIRYRDGSTYYADSVKGRFTISRDYAKNTVYLQMNSLKPEDTAVYYCNTRITQVGDYIYDYWGQGTQVTVSS | low polyreactivity |
| QVQLVESGGGLVQAGGSLRLSCAASGSTLYPNPMGWYRQAPGTERELVAAISGTGGGTYYADSVKGRFTISRDNAKNTVYLQMNSLKPEDTAVYYCAADYVFAWWGDYYWGQGTQVTVSS | high polyreactivity |
| QVQLVESGGGLVQAGGSLRLSCAASGRTFSYYTLGWYRQAPGKERELVARISNRGTNTYYADSVKGRFTISRDNAKNTVYLQMNSLKPEDTAVYYCAAYTPPVYWLTRAIRGYYWGQGTQVTVSS | low polyreactivity |
| QVQLVESGGGLVQAGGSLRLSCAASGSIFSTYTMGWYRQAPGKERELVAAITRSGGSTYYADSVKGRFTISRDNAKNTVYLQMNSLKPEDTAVYYCAARWKFPSSFYYWGQGTQVTVSS | high polyreactivity |
| QVQLVESGGGLVQAGGSLRLSCAASGSTFTIYAMGWYRPAPGKERELVAAIDWSGGGTDYADSVKGRFTISRDNAKNTVYLQMNSLKPEDTAVYYCAAETFYDYGGYDYWGQGTQVTVSS | low polyreactivity |
| QVQLVESGGGLVQAGGSLRLSCAASGSILYVYDMGWYRQAPGNERELVATITGRVVSTNYADSVKGRFTISRDNAKNTVYLQMNSLKPEDTAVYYCAARTRRRRGEYDYWGQGTQVTVSS | high polyreactivity |
| QFQIVESGGGLVQAGGSLRLSCASSGLIFYKYAMGWYRQAPGKERELVARISYTGGITSYADSVKGRFTISRDNAKNTVYLQMNSLKPEDTAVYYCAARYTRPFGPFDYWGQGTQVTVSS | low polyreactivity |
| QVQLVESGGGLVQAGGSLSLSCAASGRIFDYYAMVWYRQAPGKERDLVAAISTSGGSTYYADSVKGRFTISRDNAKNTVYLQMISLKPVDTAVYYCAKDITVTYPGLDYDYWGQGTQVSVSS | low polyreactivity |
| PVQLVESGGGLVHAGGRHRLSSAASGSIFNYYPMGWYRKAPGTERELVATISAGGSTNYADSVTGRFTISRDNAKNTVYLHKNRLKPEDTAVYYCNRARYYLTSYTYLTSYDYWGQGTQGTVSS | high polyreactivity |
| QVQLVESGGGLVQAGGSLRLTCAASGSTIADNAMGWYRPAPGTERELVAGITRRGGSTYYADSVKGRFTISRDNAKNTVYLQMNSLKPEDTAVYYCNKGPVRGRYSVWPIEMDYWGQGTQVTVSS | low polyreactivity |
| QVQLVESGGGLVQAGGSLRLTCAASGSIFSYYAMGWYRQAPGKERELVAAITSGGGTYYADSVKGRFTISRDNAKNTVFLQMNSLKPEDTAVYYCAKDGYPDQDVQVFNDSDYWGQGTQVTVSS | low polyreactivity |
| QVQLVESGGGLVQAGGSLRLSCAASGRIFWYYAMGWYRQAPGKERELVAAITKSGGSTYYADSVKGRFTISRDYAKNTVYLQMNSLKPEDTAVYYCAAPTWTRSSFDYWGQGTQVTVSS | high polyreactivity |
| QVQLVESGGGLVQAGGSLRLSCAASGSTFYYNAMGWYRQAPGKERELVAAITFTGGSTYADSVKGRFTISRDNAKNTVYLQMNSLKPEDTAVYYCAATIQGHDYLGTGYDYWGQGTQVTVSS | low polyreactivity |
| QVQLVESGGCLVQAGGSLRLSCAASGSTLWGYAMGWYRQAPGKERELVAAITSSGGITYYADSVKGRFTISRDNAKNTVYFQMNSLKPEDTAVYFCAVDYYVVGWTYLYYYWGQGTQVTVSS | low polyreactivity |
| QVQLVESGGGLVQAGGSLRLSCAASGRIFRGYGMGWYSQAPGKERVLVAAITSRGGSTYYADSVKGRFTSSRDNAKNTVYLQMNSLKPQDTAVYYCYAVAFYYVGSKTYTRGLDYWGQGTQVTVSS | high polyreactivity |
| QVQLVESGGGLVQAGGSLRLSCAASGIIFYVYAMGWYRQAPGKERELVAAISSGGRTNYADSVKGRFTISRDNAKNTVYLQMNSLKPEDTAVYYCAAKSVRRRLGYWGQGTQVTVSS | high polyreactivity |
| QVQLVESGGGLVQAGGSLRLSCAAYGRIFDNNAMGWYRQAPGKERELVAAIDWRGGSTDYADSVKGRFTISRDNAKNTVYLQMNSLKPEDTAVYYCVAGHVPYWHGNSYDYWGQGTQVTVSS | low polyreactivity |
| QVQLVESGGGLVQAGVSLRLSCAASGSIFGGYAMGWYRQAPGKERELVAVISTRGGRTYYADSVKGRFTISRDNAKYTVYLQMNSLKPEDTAVYYCAANRQYTEYNYWGQGTQVTVSS | high polyreactivity |
| QVQLVESGGGLVQAGGSLRLSCAASGFIFTTYAMGWSRQAPGKEWELVAAISTSGGRTYYADSVKGRFTISRDNAKNTVYLQMNSLKPEDTAVYYCNTYSYYSYDWGQGTQVTVSS | high polyreactivity |
| QVQLQESGGGLVQAGGSMRLSCAASGSISELRPMGWYRQAPGKERELVAGISTGGSTNYADSVKGRFTISRDNAKNTVYLQMNSLKPEDTAVYYCAAALSNVRNVRSPYDYWGQGTQVTVSS | high polyreactivity |
| QVQLLESGGGLVQAGGSLRLSCAASGSTFLIYAMGWYRQAPGKERELVASINLNTGRTSYADSVKGRFTISRDNAKNTVYLQMNSLKPEDTAVYYCAAELWVRFRGVKEYDYWGQGTQVSVSS | high polyreactivity |
